Data published in paper PMC13544220, “Glycemic and bodyweight effects of GIPR coding variation reflect differences in surface expression and intrinsic functional impairment” (Science Advances, 2026).

Key:
Assay type in all cases: cell-based, human
[1] = tested on: wild-type and variant SNAP-GIPR; assay: Single-concentration GIP cAMP response by HTRF in AD293 cells; conditions: Fig S3F, HTRF, mean;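 note: ratio to experiment-wide average response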
Description: (§1) All variants were tested in parallel on each occasion to control for transfection efficiency differences between experiments.

[2] = tested on: wild-type and variant SNAP-GIPR; assay: Surface SNAP-GIPR expression (SNAP-tag labelling) in INS-1 cells; conditions: Fig 4G; Mean
Description: Twenty-four hours before the experiment, AD293 or INS-1 cells were reverse transfected with GIPR variant or wild-type plasmids using Lipofectamine 2000 in 96-well, clear-bottom, black microplates precoated with poly-D-lysine. All variants were tested in parallel on each occasion to control for transfection efficiency differences between experiments. Cells were then labeled using the cell-impermeant probe SNAP-Surface Alexa Fluor 647 (500 nM, New England Biolabs, USA) for 10 min at room temperature to label only surface GIPR. […] Several fields of view (FOVs) were acquired within each well using a 20X, 0.75–numerical aperture (NA) air objective. Surface GIPR fluorescence was quantified after flat-field correction using BaSiC ([72]) and segmenting using Phantast ([73]), which generates a mask based on the phase contrast images to demarcate cell versus noncell. Wide-field imaging of the surface-specific labeling achieved by SNAP-Surface probes means that surface expression can be established from whole-cell fluorescence, after subtracting nonspecific fluorescence from a separate well containing nontransfected cells processed in parallel from the same experiment. Data were normalized by dividing by the average specific signal across each experiment, or by the wild-type value, as indicated in the figure legends.

[3] = tested on: wild-type and variant SNAP-GIPR; assay: cADDis cAMP imaging in AD293 cells, ensemble, expression-matched and per decile; conditions: Fig S3F, cADDis, mean
Description: AD293 cells were reverse transfected with the GIPR variant or wild-type plasmids using Lipofectamine 2000 and cotransduced with the cADDis Green Up BacMam (10 μl per well, Montana Molecular, USA), in 96-well, poly-D-lysine–coated microplates. All variants were tested in parallel on each occasion to control for transfection efficiency differences between experiments. After 24 hours, cells were labeled using 500 nM SNAP-Surface Alexa Fluor 647 for 10 min at room temperature. Cells were washed three times and then imaged in KRBH buffer containing 6 mM glucose and 0.1% BSA. Imaging was performed at 37°C by wide-field microscopy using the same microscope as in the “Assessment of surface GIPR expression by SNAP-tag labeling in cell lines” section, with 9 FOVs for both cADDis and SNAP-Surface fluorescence acquired from each well using a 10X, 0.45 NA air objective. […] Flat-field correction was performed using BaSiC ([72]), drift correction was performed using SIFT, and a maximum intensity projection of the cADDis channel was used to segment individual cells. cAMP responses were determined by quantifying the cADDis fluorescence intensity for each cell at each time point. Nonviable cells or noncell objects were excluded according to criteria for allowable cell IBMX/FSK responses. […] The cADDis mask was then used to quantify the SNAP-Surface signal from each cell. Wild-type SNAP-Surface readings were split into deciles, and these deciles were subsequently used to categorize variant-transfected cells to match against the wild type. After trimming the top and bottom deciles, the mean was taken of each decile mean for surface expression level or cAMP response, which achieved matched expression levels by effectively applying an inverse weighting to counteract differences in cell number in each decile for different variants. Ensemble expression levels or cAMP responses were calculated without regard to deciles. Variant cADDis responses were also analyzed within their own surface expression deciles.

[4] = tested on: wild-type and variant SNAP-GIPR; assay: Surface SNAP-GIPR expression (SNAP-tag labelling) in AD293 cells; conditions: for AD293 Surface: Fig S3E, mean; for Surface SNAP-GIPR expression: sheet Fig 1C;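 for all read-outs here: scaled to the experimental average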
In short: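 Read-out: whole-cell fluorescence of surface-only SNAP label (Alexa Fluor 647, 500 nM, 10 min, RT), wide-field 20X, several FOVs per well. Flat-field corrected, phase-contrast masked, nontransfected-well signal subtracted; normalized to experiment mean or wild-type.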

[5] = tested on: wild-type and variant SNAP-GIPR; assay: Constitutive and agonist-mediated internalization, reversible SNAP-tag labelling, AD293 cells; parameters: key to Internalisation, Vehicle / Internalisation, +GIP / Internalisation, GIP-only: % internalization: residual fluorescence after Mesna vs pre-Mesna; Surface expression: unit not given here; conditions: Mean
Description: (§2) Twenty-four hours before the experiment, AD293 or INS-1 cells were reverse transfected with GIPR variant or wild-type plasmids using Lipofectamine 2000 in 96-well, clear-bottom, black microplates precoated with poly-D-lysine. All variants were tested in parallel on each occasion to control for transfection efficiency differences between experiments. […] Media were then removed, cells washed with PBS and then placed in TNE buffer (pH 8.6) for imaging. […] After 10 min, the well was reimaged again to detect remaining fluorescence from internalized GIPR. Images were analyzed as in the “Assessment of surface GIPR expression by SNAP-tag labeling in cell lines” section, with the residual specific fluorescence after Mesna treatment expressed relative to the pre-Mesna value to establish percentage internalization.

[6] = tested on: wild-type and variant SNAP-GIPR; assay: Constitutive and agonist-mediated internalization, reversible SNAP-tag labelling, INS-1 cells; parameters: key to Internalisation, GIP-only / Internalisation, Vehicle / Internalisation, +GIP: % internalization: residual fluorescence after Mesna vs pre-Mesna; conditions: Mean
Description: as §2

[7] = tested on: wild-type and variant SNAP-GIPR; assay: Single-concentration GIP cAMP response by HTRF in INS-1 cells; conditions: Fig S3E, mean
Description: as §1

B1: T116R (protein, UniProt P48546 22-466, looked up, variant T116R)
Gastric inhibitory …: RAETGSKGQTAGELYQRWERYRRECQETLAAAEPPSGLACNGSFDMYVCWDYAAPNATARASCPWYLPWHHHVAAGFVLRQCGSDGQWGLWRDHRQCENPEKNEAFLDQRLILERLQVMYTVGYSLSLATLLLALLILSLFRRLHCTRNYIHINLFTSFMLRAAAILSRDRLLPRPGPYLGDQALALWNQALAACRTAQIVTQYCVGANYTWLLVEGVYLHSLLVLVGGSEEGHFRYYLLLGWGAPALFVIPWVIVRYLYENTQCWERNEVKAIWWIIRTPILMTILINFLIFIRILGILLSKLRTRQMRCRDYRLRLARSTLTLVPLLGVHEVVFAPVTEEQARGALRFAKLGFEIFLSSFQGFLVSVLYCFINKEVQSEIRRGWHHCRLRRSLGEEQRQLPERAFRALPSGSGPGEVPTSRGLSSGTLPGPGNEASRELESYC
- AD293 100 pM HTRF ([1]; AD293, 100 pM): 0.9665
- AD293 100 nM HTRF ([1]; AD293, 100 nM): 1.485
- Surface expression [2]: 1.428
- AD293 100 pM cADDis ([3]; AD293, 100 pM): 33.6456
- AD293 100 nM cADDis ([3]; AD293, 100 nM): 38.18
- AD293 Surface ([4]; column repeated, paired with cAMP 100 nM): 1.324
- AD293 Surface ([4]; paired with cAMP 100 pM): 1.324
- Surface SNAP-GIPR expression ([4]; replicate 1): 1.245
- Surface SNAP-GIPR expression ([4]; replicate 2): 1.023
- Surface SNAP-GIPR expression ([4]; replicate 3): 0.6735
- Surface SNAP-GIPR expression ([4]; replicate 4): 1.28
- Surface SNAP-GIPR expression ([4]; replicate 5): 0.9777
- Surface SNAP-GIPR expression ([4]; replicate 6): 1.324
- Surface SNAP-GIPR expression ([4]; replicate 7): 1.095
- Surface SNAP-GIPR expression ([4]; replicate 8): 1.165
- Surface SNAP-GIPR expression ([4]; replicate 9): 1.067
- Surface SNAP-GIPR expression ([4]; replicate 10): 1.216
- Surface SNAP-GIPR expression ([4]; replicate 11): 0.8978
- Surface SNAP-GIPR expression ([4]; replicate 12): 1.007
- Surface SNAP-GIPR expression ([4]; replicate 13): 1.293
- Surface SNAP-GIPR expression ([4]; replicate 14): 1.058
- Surface SNAP-GIPR expression ([4]; replicate 15): 1.321
- Surface SNAP-GIPR expression ([4]; replicate 16): 1.079
- Surface SNAP-GIPR expression ([4]; replicate 17): 1.526
- Surface SNAP-GIPR expression ([4]; replicate 18): 1.463
- Surface SNAP-GIPR expression ([4]; replicate 19): 1.041
- Surface SNAP-GIPR expression ([4]; replicate 20): 1.229
- Surface SNAP-GIPR expression ([4]; replicate 21): 1.037
- Surface SNAP-GIPR expression ([4]; replicate 22): 1.307
- Surface SNAP-GIPR expression ([4]; replicate 23): 1.273
- Surface SNAP-GIPR expression ([4]; replicate 24): 1.448
- Surface SNAP-GIPR expression ([4]; replicate 25): 1.438
- Surface SNAP-GIPR expression ([4]; replicate 26): 1.564
- Surface SNAP-GIPR expression ([4]; replicate 27): 1.467
- Surface SNAP-GIPR expression ([4]; replicate 28): 1.252
- Surface SNAP-GIPR expression ([4]; replicate 29): 1.566
- Surface SNAP-GIPR expression ([4]; replicate 30): 1.334
- Surface SNAP-GIPR expression ([4]; replicate 31): 1.686
- Surface SNAP-GIPR expression ([4]; replicate 32): 1.692
- Surface SNAP-GIPR expression ([4]; replicate 33): 1.307
- Surface SNAP-GIPR expression ([4]; replicate 34): 1.109
- Surface SNAP-GIPR expression ([4]; replicate 35): 1.705
- Surface SNAP-GIPR expression ([4]; replicate 36): 1.374
- Surface SNAP-GIPR expression ([4]; replicate 37): 1.911
- Surface SNAP-GIPR expression ([4]; replicate 38): 1.787
- Surface SNAP-GIPR expression ([4]; replicate 39): 1.944
- Surface SNAP-GIPR expression ([4]; replicate 40): 1.676
- Surface SNAP-GIPR expression ([4]; replicate 41): 1.421
- +GIP internalisation (100 nM) ([5]; Fig 4E, GIP 100 nM): 0.9677
- GIP-specific internalisation (100 nM) ([5]; Fig 4E, GIP 100 nM): 0.2939
- Constitutive internalisation (100 nM) ([5]; Fig 4E): 0.6738
- Surface expression ([5]; Fig 4E): 1.687
- Internalisation, +GIP ([5]; Fig S4C, AD293): 57.3525
- Internalisation, GIP-only ([5]; Fig S4C, AD293): 17.4551
- Internalisation, Vehicle ([5]; Fig S4C, AD293): 39.8973
- +GIP internalisation (100 nM) ([6]; Fig 4G, GIP 100 nM): 0.7228
- GIP-specific internalisation (100 nM) ([6]; Fig 4G, GIP 100 nM): 0.1652
- Constitutive internalisation (100 nM) ([6]; Fig 4G): 0.5577
- Internalisation, +GIP ([6]; Fig S4C, INS-1): 48.6183
- Internalisation, GIP-only ([6]; Fig S4C, INS-1): 11.125
- Internalisation, Vehicle ([6]; Fig S4C, INS-1): 37.4933
- INS-1 cAMP (100 nM) [7]: 1.507
